Experimental data taken from US20180244796A1 (CARSGEN THERAPEUTICS, published 2018).

B3: purified human mesothelin protein (recombinant, 6xHis tag) (other)
chain: EVEKTACPSGKKAREIDESLIFYKKWELEACVDAALLATQMDRVNAIPFTYEQLDVLKHKLDELYPQGYPESVIQHLGYLFLKMSPEDIRKWNVTSLETLKALLEVNKGHEMSPQVATLIDRFVKGRGQLDKDTLDTLTAFYPGYLCSLSPEELSSVPPSSIWAVRPQDLDTCDPRQLDVLYPKARLAFQNMNGSEYFVKIQSFLGGAPTEDLKALSQQNVSMDLATFMKLRTDAVLPLTVAEVQKLLGPHVEGLKAEERHRPVRDWILRQRQDDLDTLGLGLQGHHHHHH
notes: also called hu-mesothelin; human mesothelin recombinant protein

Experiments:
[1] = target: T1, BSA (bovine serum albumin) (bovine, UniProt P02769 25-607); test: single phage ELISA, 100 ng/well coated BSA, anti-M13 detection
T1 construct: also called negative control protein BSA
Protocol: 96 clones were randomly selected in the clones obtained from the fourth round of screening and their binding capability to human mesothelin was analyzed by single phage ELISA (enzyme-linked immunosorbent assay). For this purpose, each single colony was inoculated in 300 μl of 2×YT/ampicillin medium (containing 2% glucose) in a 96-well deep-well plate and cultured with shaking at 37° C. and 250 rpm for 16 hours. 20 μl of culture was inoculated into 500 μl of 2×YT/ampicillin medium (containing 0.1% glucose) and shaken at 37° C. and 250 rpm for 1.5 hours. To prepare the helper phage solution, 75 μl of M13KO7 (titer of 3×10¹² pfu/ml) was taken and mixed into 15 ml of 2×YT medium and added into a culture plate at 50 μl/well, and incubated at 37° C. and 150 rpm for 30 minutes. And then prepared kanamycin solution (180 μl of 50 mg/ml kanamycin was taken and added into 15 ml of 2×YT medium) was added at 50 μl/well and incubated with shaking for 16 hours at 37° C. and 250 rpm. […]
For single phage ELISA, 100 ng/well of antigen human mesothelin and negative control protein BSA (100 μl/well) were used in a 96-well MediSorp ELISA plate (purchased from Nunc) and coated overnight at 4° C. […] Extinction values were measured at 450 nm with an enzyme-linked immunosorbent (Bio-Rad).

scFv-P3F2-Fc = target: T2, scFv-P3F2-Fc (human, UniProt P01857-1 99-330 = IgG part, limits assumed); test: SPR Biacore T200, antibody captured by anti-human IgG (Fc), human mesothelin as analyte, 25 C
T2 construct: domain: Fc fragment; scFv cloned NheI/BamHI into pCMV-V5-Fc, expressed in HEK-293F, protein A purified; also called P3F2 single chain antibody; P3F2 single chain antibod
Protocol: (§1) To quantitatively analyze the binding of an antibody to human mesothelin, the affinity and kinetic parameters of single-chain antibody and monoclonal antibody of P1A6E and P3F2 were measured by capture method using Biacore T200 system (from GE). An anti-human IgG (Fc) antibody (purchased from GE) was coupled to carboxymethyl dextran surface of sensor chip […] through primary amino with NHS/EDC coupling according to the manufacturer's instructions. Measurements were performed in 1×HBS-EP+working buffer at 25° C., 30 μl/min, and regeneration condition was 3 M MgCl2, 10 μl/min for 30 seconds. In each round of the testing cycle, the antibody to be tested is firstly captured onto the chip. Analyte (human mesothelin) of a certain concentration flowed over the chip surface. Due to the produced SPR signal, the interaction between human mesothelin and the captured antibody can be detected. The detected signal is defined as resonance unit (RU), which was plotted vs time (second) to obtain the corresponding binding curve and dissociation curve. In different test cycles, concentrations of human mesothelin were 10 nM, 20 nM, 40 nM, 80 nM and 160 nM, respectively. The resulting curves were evaluated using Biacore T200 evaluation software and the affinity KD values were calculated. FIG. 5 and FIG. 6 show kinetic curves of the monoclonal antibodies P1A6E and P3F2, in a Biacore Affinity Assay, respectively.

scFv-P1A6E-Fc = target: T3, scFv-P1A6E-Fc (human, UniProt P01857-1 99-330 = IgG part, limits assumed); test: as above
T3 construct: domain: Fc fragment; scFv cloned NheI/BamHI into pCMV-V5-Fc, expressed in HEK-293F, protein A purified; also called P1A6E single chain antibody; antibody-Fc fusion protein scFv-P1A6E-Fc
Protocol: as §1

[2] = target: B3; test: flow cytometry; CAR T cells stained with biotinylated human mesothelin recombinant protein and PE-labeled streptavidin
Protocol: Infected CTL cells were detected by flow cytometry on day 8 of culture for the expression of different chimeric antigen receptors. Firstly, the infected CAR T cells were incubated with biotinylated human mesothelin recombinant protein for 1 h at 37° C., washed in D-PBS twice and then incubated with PE-labeled streptavidin for 40 min at 37° C. After washed with D-PBS for 3 times, the ratio of positive cells was determined by flow cytometry. Uninfected T lymphocytes was used as a negative control, the positive rates of virus-infected T cells expressing different chimeric antigen receptors are shown in Table 3.

[3] = target: human mesothelin on PANC-1-MSLN cells (human, UniProt Q13421 296-598); test: cell-based or functional assay
[4] = target: B3; test: SPR Biacore T200, antibody captured by anti-human IgG (Fc), human mesothelin as analyte, 25 C
Protocol: as §1

Sequence of human mesothelin on PANC-1-MSLN cells (Q13421 other isoform, or with tags, fused parts or gaps limits assumed): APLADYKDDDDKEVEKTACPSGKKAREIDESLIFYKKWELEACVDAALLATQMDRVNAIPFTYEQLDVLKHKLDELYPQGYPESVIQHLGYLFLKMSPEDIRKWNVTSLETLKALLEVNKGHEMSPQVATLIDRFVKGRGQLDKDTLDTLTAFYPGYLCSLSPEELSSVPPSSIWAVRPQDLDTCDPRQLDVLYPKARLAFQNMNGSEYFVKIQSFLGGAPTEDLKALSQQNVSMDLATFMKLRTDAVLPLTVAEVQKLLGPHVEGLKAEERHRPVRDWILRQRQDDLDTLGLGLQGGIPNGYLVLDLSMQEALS
T1 sequence (P02769 25-607 limits assumed): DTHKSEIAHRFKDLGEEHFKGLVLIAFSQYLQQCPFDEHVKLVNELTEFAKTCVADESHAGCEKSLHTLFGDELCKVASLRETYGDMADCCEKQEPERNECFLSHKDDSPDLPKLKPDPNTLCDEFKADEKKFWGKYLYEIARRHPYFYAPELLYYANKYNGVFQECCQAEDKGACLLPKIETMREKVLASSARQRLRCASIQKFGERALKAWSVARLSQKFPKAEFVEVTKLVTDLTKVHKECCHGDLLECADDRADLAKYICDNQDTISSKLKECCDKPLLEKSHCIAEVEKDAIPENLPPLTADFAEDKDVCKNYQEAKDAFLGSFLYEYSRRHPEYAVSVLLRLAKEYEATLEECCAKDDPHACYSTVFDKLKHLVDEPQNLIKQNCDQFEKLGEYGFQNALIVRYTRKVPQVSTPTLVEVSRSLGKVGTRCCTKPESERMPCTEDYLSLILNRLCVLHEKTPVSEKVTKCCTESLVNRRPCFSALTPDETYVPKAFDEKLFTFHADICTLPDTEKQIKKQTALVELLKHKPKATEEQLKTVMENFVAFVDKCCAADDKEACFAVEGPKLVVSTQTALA

B1: single chain antibody P1A6E (phage-displayed, single phage ELISA) (scFv)
scFv: QVQLEQSGLGLVKPSQTLSLTCAISGDTVSSDSAAWNWIRQSPSRGLEWLGRTYYRSKWFNDYAVSVKGRITINSDTSKNQFSLQLNSVTPEDTAVYYCARSNSYYYYAMDVWGQGTLVTVSSGGGGSGGGGSGGGGSQAVLTQPSSLSASPGASASLTCTLRSGINVGIYRIYWYQQRPGSPPQILLTYKSDSDKYQGSGVPSRFSGSKDASANAGILLISGLQSEDEADYYCMIWHSGGWVFGGGTKVTVLG
notes: the fusion to the phage coat protein is not described
[1]
  binding result: no binding

B2: single chain antibody P3F2 (phage-displayed, single phage ELISA) (scFv)
scFv: QMQLVQSGAEVKKPGASVKVSCKASGYTFTSYYMHWVRQAPGQGLEWMGIINPSGGSTSYAQKFQGRVTMTRDTSTSTVYMELSSLRSEDTAVYYCASSRSGTTVVNHDAFDIWGKGTTVTVSSGGGGSGGGGSGGGGSDIQLTQSPSSLSASVGDRVTITCRASQVISRALAWYQQTPGKPPKLLIYDASNLQSGVPSRFSGSGSGTDFTLTISRLQPEDFATYYCQQFNSYPLTFGGGTKLEIKR
notes: as for B1
[1]
  binding result: no binding

## B3
scFv-P3F2-Fc
  Kd: 16.2 nM
  koff: 0.000935 s⁻¹
  kon: 57700 M⁻¹ s⁻¹
scFv-P1A6E-Fc
  Kd: 18.9 nM
  koff: 0.00156 s⁻¹
  kon: 82500 M⁻¹ s⁻¹

B4: chimeric antigen receptor P3F2-BBZ on CTL cells (receptor)
chain: QMQLVQSGAEVKKPGASVKVSCKASGYTFTSYYMHWVRQAPGQGLEWMGIINPSGGSTSYAQKFQGRVTMTRDTSTSTVYMELSSLRSEDTAVYYCASSRSGTTVVNHDAFDIWGKGTTVTVSSGGGGSGGGGSGGGGSDIQLTQSPSSLSASVGDRVTITCRASQVISRALAWYQQTPGKPPKLLIYDASNLQSGVPSRFSGSGSGTDFTLTISRLQPEDFATYYCQQFNSYPLTFGGGTKLEIKRTTTPAPRPPTPAPTIASQPLSLRPEACRPAAGGAVHTRGLDFACDIYIWAPLAGTCGVLLLSLVITLYCKRGRKKLLYIFKQPFMRPVQTTQEEDGCSCRFPEEEEGGCELRVKFSRSADAPAYKQGQNQLYNELNLGRREEYDVLDKRRGRDPEMGGKPRRKNPQEGLYNELQKDKMAEAYSEIGMKGERRRGKGHDGLYQGLSTATKDTYDALHMQALPPR
notes: Expressed on human CTL cells by lentivirus; also called scFv(MSLN)-CD8-CD137-CD3 zeta
[2]
  Positive rate of CTL cells transfection: 83%
[3]
  CYTOTOXICITY (%), effector target ratio 1:1, LDH release, 18 h: 60.2%
  CYTOTOXICITY (%), effector target ratio 1:3, LDH release, 18 h: 31.9%
  CYTOTOXICITY (%), effector target ratio 3:1, LDH release, 18 h: 89.3%

B5: chimeric antigen receptor P1A6E-BBZ on CTL cells (receptor)
chain: QVQLEQSGLGLVKPSQTLSLTCAISGDTVSSDSAAWNWIRQSPSRGLEWLGRTYYRSKWFNDYAVSVKGRITINSDTSKNQFSLQLNSVTPEDTAVYYCARSNSYYYYAMDVWGQGTLVTVSSGGGGSGGGGSGGGGSQAVLTQPSSLSASPGASASLTCTLRSGINVGIYRIYWYQQRPGSPPQILLTYKSDSDKYQGSGVPSRFSGSKDASANAGILLISGLQSEDEADYYCMIWHSGGWVFGGGTKVTVLGTTTPAPRPPTPAPTIASQPLSLRPEACRPAAGGAVHTRGLDFACDIYIWAPLAGTCGVLLLSLVITLYCKRGRKKLLYIFKQPFMRPVQTTQEEDGCSCRFPEEEEGGCELRVKFSRSADAPAYKQGQNQLYNELNLGRREEYDVLDKRRGRDPEMGGKPRRKNPQEGLYNELQKDKMAEAYSEIGMKGERRRGKGHDGLYQGLSTATKDTYDALHMQALPPR
notes: as for B4
[2]
  Positive rate of CTL cells transfection: 85%
[3]
  CYTOTOXICITY (%), effector target ratio 1:1, LDH release, 18 h: 56.7%
  CYTOTOXICITY (%), effector target ratio 1:3, LDH release, 18 h: 25.3%
  CYTOTOXICITY (%), effector target ratio 3:1, LDH release, 18 h: 86.5%

B6: P3F2 monoclonal antibody (antibody, V domains shown)
VH: QMQLVQSGAEVKKPGASVKVSCKASGYTFTSYYMHWVRQAPGQGLEWMGIINPSGGSTSYAQKFQGRVTMTRDTSTSTVYMELSSLRSEDTAVYYCASSRSGTTVVNHDAFDIWGKGTTVTVSS
VL: DIQLTQSPSSLSASVGDRVTITCRASQVISRALAWYQQTPGKPPKLLIYDASNLQSGVPSRFSGSGSGTDFTLTISRLQPEDFATYYCQQFNSYPLTFGGGTKLEIKR
notes: Full antibody: VH in plasmid pIH with human IgG1 CH gene, VL in plasmid pIK with human IgG CL gene; also called monoclonal antibody P3F2
[4]
  Kd: 7.17 nM
  koff: 0.000789 s⁻¹
  kon: 110000 M⁻¹ s⁻¹

B7: P1A6E monoclonal antibody (antibody, V domains shown)
VH: QVQLEQSGLGLVKPSQTLSLTCAISGDTVSSDSAAWNWIRQSPSRGLEWLGRTYYRSKWFNDYAVSVKGRITINSDTSKNQFSLQLNSVTPEDTAVYYCARSNSYYYYAMDVWGQGTLVTVSS
VL: QAVLTQPSSLSASPGASASLTCTLRSGINVGIYRIYWYQQRPGSPPQILLTYKSDSDKYQGSGVPSRFSGSKDASANAGILLISGLQSEDEADYYCMIWHSGGWVFGGGTKVTVLG
notes: Full antibody: VH in plasmid pIH with human IgG1 CH gene, VL in plasmid pIK with human IgG CL gene; also called monoclonal antibody P1A6E
[4]
  Kd: 4.04 nM
  koff: 0.00116 s⁻¹
  kon: 288000 M⁻¹ s⁻¹

B8: chimeric antigen receptor P3F2-δZ on CTL cells (receptor)
chain: QMQLVQSGAEVKKPGASVKVSCKASGYTFTSYYMHWVRQAPGQGLEWMGIINPSGGSTSYAQKFQGRVTMTRDTSTSTVYMELSSLRSEDTAVYYCASSRSGTTVVNHDAFDIWGKGTTVTVSSGGGGSGGGGSGGGGSDIQLTQSPSSLSASVGDRVTITCRASQVISRALAWYQQTPGKPPKLLIYDASNLQSGVPSRFSGSGSGTDFTLTISRLQPEDFATYYCQQFNSYPLTFGGGTKLEIKRTTTPAPRPPTPAPTIASQPLSLRPEACRPAAGGAVHTRGLDFACDIYIWAPLAGTCGVLLLSLVITRVKFSRSADAPA
notes: Expressed on human CTL cells by lentivirus; also called P3F2-δZ (negative control); P3F2-δZ (mock)
[2]
  Positive rate of CTL cells transfection: 71%

B9: chimeric antigen receptor P1A6E-δZ on CTL cells (receptor)
chain: QVQLEQSGLGLVKPSQTLSLTCAISGDTVSSDSAAWNWIRQSPSRGLEWLGRTYYRSKWFNDYAVSVKGRITINSDTSKNQFSLQLNSVTPEDTAVYYCARSNSYYYYAMDVWGQGTLVTVSSGGGGSGGGGSGGGGSQAVLTQPSSLSASPGASASLTCTLRSGINVGIYRIYWYQQRPGSPPQILLTYKSDSDKYQGSGVPSRFSGSKDASANAGILLISGLQSEDEADYYCMIWHSGGWVFGGGTKVTVLGTTTPAPRPPTPAPTIASQPLSLRPEACRPAAGGAVHTRGLDFACDIYIWAPLAGTCGVLLLSLVITRVKFSRSADAPA
notes: Expressed on human CTL cells by lentivirus; also called P1A6E-δZ (negative control); P1A6E-δZ (mock)
[2]
  Positive rate of CTL cells transfection: 75%
